Tests used:
HSP110 = molecular target: T1, HSP110 (human, UniProt Q92598 1-858, limits assumed)
T1 construct: also called HSPH1; Hsp105

human PD-L1 = molecular target: T2, human PD-L1 (human, UniProt Q9NZQ7 19-238, limits assumed); assay: Surface Plasmon Resonance
T2 construct: also called PD-1 ligand 1; CD274

mouse PD-L1 = molecular target: T3, mouse PD-L1 (mouse, UniProt Q9EP73 19-238, limits assumed); assay: Surface Plasmon Resonance
T3 construct: also called murine PDL1
T3 sequence (Q9EP73 19-238 limits assumed): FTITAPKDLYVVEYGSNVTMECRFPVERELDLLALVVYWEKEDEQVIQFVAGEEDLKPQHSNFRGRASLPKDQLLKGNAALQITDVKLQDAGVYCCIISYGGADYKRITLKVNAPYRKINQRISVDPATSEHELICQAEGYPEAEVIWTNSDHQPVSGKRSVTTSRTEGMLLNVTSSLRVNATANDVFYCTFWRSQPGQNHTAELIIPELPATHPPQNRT

T2 sequence (Q9NZQ7 19-238 limits assumed): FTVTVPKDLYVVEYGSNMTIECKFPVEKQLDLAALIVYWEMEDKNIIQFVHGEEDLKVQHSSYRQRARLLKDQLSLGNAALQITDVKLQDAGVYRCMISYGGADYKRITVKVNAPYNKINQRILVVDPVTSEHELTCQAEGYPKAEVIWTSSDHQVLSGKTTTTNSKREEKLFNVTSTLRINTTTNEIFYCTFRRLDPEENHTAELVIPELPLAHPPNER
T1 sequence (Q92598 whole entry): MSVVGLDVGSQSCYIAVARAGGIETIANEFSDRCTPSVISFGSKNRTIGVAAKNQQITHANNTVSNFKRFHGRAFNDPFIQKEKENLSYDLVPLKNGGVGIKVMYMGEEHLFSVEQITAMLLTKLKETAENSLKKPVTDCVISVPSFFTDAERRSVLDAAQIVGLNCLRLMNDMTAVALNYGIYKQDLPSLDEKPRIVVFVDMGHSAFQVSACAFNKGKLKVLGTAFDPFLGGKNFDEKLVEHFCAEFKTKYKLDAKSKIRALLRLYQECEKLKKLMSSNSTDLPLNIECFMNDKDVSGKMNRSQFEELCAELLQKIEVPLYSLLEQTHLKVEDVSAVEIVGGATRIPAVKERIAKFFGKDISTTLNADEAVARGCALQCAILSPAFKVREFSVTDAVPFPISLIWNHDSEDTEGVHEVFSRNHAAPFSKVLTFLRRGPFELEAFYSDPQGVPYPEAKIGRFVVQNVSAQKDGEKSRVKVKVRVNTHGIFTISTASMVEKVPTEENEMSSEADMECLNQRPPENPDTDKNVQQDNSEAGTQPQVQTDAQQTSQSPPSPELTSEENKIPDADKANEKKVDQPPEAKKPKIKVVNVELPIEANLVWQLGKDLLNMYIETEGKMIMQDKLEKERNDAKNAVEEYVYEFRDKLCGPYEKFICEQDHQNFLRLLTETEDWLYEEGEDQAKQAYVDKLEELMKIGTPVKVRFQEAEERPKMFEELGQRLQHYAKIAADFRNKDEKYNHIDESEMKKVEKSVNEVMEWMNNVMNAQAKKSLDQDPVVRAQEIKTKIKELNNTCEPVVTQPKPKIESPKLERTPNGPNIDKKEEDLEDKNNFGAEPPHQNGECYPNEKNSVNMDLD

Binder	Kd (HSP110) [nM]	Kd (human PD-L1) [nM]	Kd (mouse PD-L1) [nM]
A-C2 (Sac7d variant binding to HSP110, SEQ ID NO: 27) (designed binder, also called NF1; anti-HSP110 variant) MVKVKFMWRGEEKEVDTSKIWDVWRSGKTVYFHYDDNGKMGQGKVHEKDAPKELLDMLARAEREKK	< 1		
B11 (Sac7d variant binding to PD-L1, SEQ ID NO: 21) (designed binder, also called NF2; NF-B11) MVKVKFVIGGEEKEVDTSKIKTVRRIGKYVLFKYDDNGKTGMGLVSEKDAPKELLDMLARAEREKK		~15	~3.2
